Measurements: patent US20240261378

Target: TRIM16 GST-fusion protein (substrate of the ULK1 kinase assay)

B1: Flag-ULK1 wt (protein)
chain: MEPGRGGTETVGKFEFSRKDLIGHGAFAVVFKGRHREKHDLEVAVKCINKKNLAKSQTLLGKEIKILKELKHENIVALYDFQEMANSVYLVMEYCNGGDLADYLHAMRTLSEDTIRLFLQQIAGAMRLLHSKGIIHRDLKPQNILLSNPAGRRANPNSIRVKIADFGFARYLQSNMMAATLCGSPMYMAPEVIMSQHYDGKADLWSIGTIVYQCLTGKAPFQASSPQDLRLFYEKNKTLVPTIPRETSAPLRQLLLALLQRNHKDRMDFDEFFHHPFLDASPSVRKSPPVPVPSYPSSGSGSSSSSSSTSHLASPPSLGEMQQLQKTLASPADTAGFLHSSRDSGGSKDSSCDTDDFVMVPAQFPGDLVAEAPSAKPPPDSLMCSGSSLVASAGLESHGRTPSPSPPCSSSPSPSGRAGPFSSSRCGASVPIPVPTQVQNYQRIERNLQSPTQFQTPRSSAIRRSGSTSPLGFARASPSPPAHAEHGGVLARKMSLGGGRPYTPSPQVGTIPERPGWSGTPSPQGAEMRGGRSPRPGSSAPEHSPRTSGLGCRLHSAPNLSDLHVVRPKLPKPPTDPLGAVFSPPQASPPQPSHGLQSCRNLRGSPKLPDFLQRNPLPPILGSPTKAVPSFDFPKTPSSQNLLALLARQGVVMTPPRNRTLPDLSEVGPFHGQPLGPGLRPGEDPKGPFGRSFSTSRLTDLLLKAAFGTQAPDPGSTESLQEKPMEIAPSAGFGGSLHPGARAGGTSSPSPVVFTVGSPPSGSTPPQGPRTRMFSAGPTGSASSSARHLVPGPCSEAPAPELPAPGHGCSFADPITANLEGAVTFEAPDLPEETLMEQEHTEILRGLRFTLLFVQHVLEIAALKGSASEAAGGPEYQLQESVVADQISLLSREWGFAEQLVLYLKVAELLSSGLQSAIDQIRAGKLCLSSTVKQVVRRLNELYKASVVSCQGLSLRLQRFFLDKQRLLDRIHSITAERLIFSHAVQMVQSAALDEMFQHREGCVPRYHKALLLLEGLQHMLSDQADIENVTKCKLCIERRLSALLTGICA
- in vitro phosphorylation (γ32P ATP, autoradiography), wt vs kinase-dead K46I ULK1: comparing active vs. kinase dead ULK1 we established that TRIM16 was a substrate for ULK1 phosphorylation
